Measured values reported in the supplement of paper PMC9170038.

tested on: K4 kissing-loop RNA reporter; experiment: apparent KD of K4 kissing-loop reporter; higher = weaker reporter binding; details: Eterna round: R107; input ligand: arginine 13.2 mM
Protocol: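 RNA-MaP round R107: designed RNA switches with theophylline, tryptophan, arginine or FMN aptamers are transcribed on-chip within common flanks. They are titrated with a labelled K4 kissing-loop RNA reporter in RNA-MaP buffer (100 mM Tris pH 7.5, 80 mM KCl, 4 mM MgCl2), without ligand or with the indicated ligand. Median apparent KD per design.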
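Further: bound reporter read as fluorescence of individual clusters on recovered sequencing chips by microscopy, with normalized cluster intensities fitted with a binding model.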

Row | Sequence | apparent KD of K4 kissing-loop reporter [nM]
1 | CGCAGUGAUGUUGCGAGUAGCUACAGGGAAGGAGCGCGCUAGUGCGCAGGUAGGUCGCCCACGCAGUGAUGUUGCGUCAUAGGGU [Exclusion Arg A GF8] | 114
2 | UCCUUAUCGCGGUCAUAAAGCCUAUAAAACAAGGAUAUCUCAUCAGAGAGAAGGUGUGAGUGAUGUUCAAAGGCCACCACGGGUU [theeternabot_sameState_KL_FMN_A_47] | 724
3 | GGGCAUGUUAAAGGAUAUAGCAGGUGAUACAAGAAAGUGAGUGAUGUUUAUGUAGAUGAUGAUAUGUUAGAAGGUUAACAAAACC [abcdefghijklm] | 475
4 | UGUCAUUGGUCGGCCGCCACUUCAUGUAGAGUGAUGUUCUGUAAGACGGAUCGAAAGAUCUGUCGAAGGACCGGGACCGAUGACU [FiskerMod 13 - Jieux - Same State - Tryptophan B] | 303
5 | AUUUAAUGUAUAGAUUAUAUACAUAAUUCAGAGGAUAUGCAUAGAAGCAGAAGGCUGGUUGCAGUGAUGUUGCUUUUUUAAUUUA [JR_SSFMNA_Sub008] | 125
6 | AAAAUAAUCCAGUGAUGUUGGUAUCCAGAUACCAGCCAGGAAACUGGCCCUUGGCAGCUGUGGACGUACAAAAUAAGUACGUCCU [#OpenEnded 10 #StaticStem #K4Early] | 268
7 | UGUAAUGAGUGAUGUUCAUGUAGUAAGGAUACCAGUAAUUCAAAAUGCCCUUGGCAGCUUAGUUCUAUCUAUAGUUGGGUAGUGG [Theophilline A V4 (+5U)] | 209
8 | AAGGGCGAGGUAACGUGGAUAUCUCGUCGCAAGGAUAUCUGGAAACAGAGAAGGUGCUACAUUACCGGCAGUGAUGUUGCUGACC | 312
9 | AAUGGAGGCUGAAGGAGCGCCGCCAGUGAUGUUGGGAGUUAGAUACCAGUGAUGUUGGGCCGGCAGGUAGGUCGCGGUUUUUAUU [Exclusion Arginine B Gf 16] | 78.4
10 | GCAGUCAAUCGACCACGAAAGUGGAUGGAUACCAGCCCGAAACCGGGCCCUUGGCAGCCAGUGAUGUUGGAAGACUGCUUUAAAA [#SwitchBubble 14 #K4Late] | 372
11 | UGACAUUGCUCAGAUACCAGACUUGAGGAACACCCAAGUGCCAAAUACGUACAAAUAAAAGUCCCUUGGCAGCUGAGCAAUGUCU [TheoBX 12] | 23.5
12 | UCUGAAGGUGGAGGAUAUUGAUUGAAUCUUGGUCAGGAGUGAUGUUCCGGGAAGCCUUGGAUUCAUCGAGAAGGCCAAGGAUAGU [#10 K4 FMN B Same State] | 259
13 | UAAAUUAAGCUUUGCUGAUUAAUAAGCGAUACCAGCAAAUAAUGAUGCCCUUGGCAGCGUUAUAAUCUAGUGAUGUUAGAUUAGU [Not much to say about this one] | 106
14 | UAUAAUUCGGCGGCCGCCACUGACCAUAGCCUUCGAUGGCCAGUGAUGUUGGCCUCUGGCUCUAACAGGACCGGGCCGAAUUGCG [Aririmaus] | 179
15 | UCGAUGGCCAGCGAUACCAGCCCAGUGAUGUUGGGCACAUGGUUGCGGGAAAUCCCAUUGGGCCCUUGGCAGCGCUUGCAUGGGU [Dizaisa] | 121
16 | AAAUUUAAUAUAUUUAAUUAAUUAUGUGAUACCAGACAUUUAUAAGUCCCUUGGCAGCACUUUGCAGUGAUGUUGCAUAUAAUAA [JR_SSTheophyA_Sub013] | 185
17 | UGAUUUAACUGAAGGAGCGGCAAUUGAUAAGUAAAUAUAGUGAUGUUAUAUAAGAUAGAGAGCCAGGUAGGUCGCAGAGGGAGGA [ExArgB.J] | 139

Row | Sequence | apparent KD of K4 kissing-loop reporter [nM]
18 | CCAGGUUGCCGCAACGACCUGGAUUUUAGGGAGGAUAUCCAGAGCAGGAGAAGGCCCAGUGAUGUUGGGCCUGUGGAGCCCAUAU [Ararensoza] | 149
19 | CUCGAGUGAUGUUCGAUUAUUUAUACAGAUACCAGUGAAUUUUAACACCCUUGGCAGCUGGUUGUAUCUUUGUUUUUUACACAAG [JR_ExcTheophyA_Sub006] | 177
20 | UAAUCCUAGUGAUCCUUAUCAAGUGGUGGGCGAGGACCGGUACGGCCGCCACUCGAAUAUGCAGUGAUGUUGUAAUCCGGAUAAU [Exclusion - Tryptophan A (Freestyle 9)] | 741
21 | UGUCAUUGGUCGGCCGCCACUAGGACCGGGUUUUACCUAGUGAUGUUAGUAUAAACGGCCGCCACUAGGACCGGGACCGAUGACU [KL-SSTryp-B24 #DoubleAptamer] | 447
22 | AAUCAAUACAGAAGGAGCGUGACAAUUACUAUUGAUUCAGGAGCUAGUGAUGUUAGCAUUUCACAGGUAGGUCGCUGUACAUUUA [JR_SSArginiB_Sub013] | 203
23 | GCCGUAGAUUGAAGGAGCGAGUAGGCUCACUUGCGAAGUGAAUAGCAGAGUGAUGUUCUGUCUCAGGUAGGUCGCAAUCUACGGC | 172
24 | UAUUUGAUGUCAGGAUAUCGUAUACGAGUGAUGUUCGUAUUUCUACUAUAGAUUAUUUAAAUUUUUCGAGAAGGGACAACAUUUA [#04 K4 FMN B Same State] | 93.3
25 | UAGUCAUACAGAGGAUAUCGUAUGAGUGAUGUUCAAGUGCGUACAUCAACUUGAUGUACAGAUAGACGAGAAGGCUGUAUGACUA [FMB B SS t6] | 382
26 | AAGAGAUCGAGAAGGAGCGAGAAAGCUAGUACAUAUGUACUAGCAAAGCAGUGAUGUUGCACUCAGGUAGGUCGCUCGAUCUCAA [AK1 SS Arginine B] | 299
27 | GGGCUAUAGUGAUGUUAUUGUCUAAACGAUACCAGUUCACCCGUGAACCCUUGGCAGCGUGGUGUAACCUAUCCUCGUUGCACUG [theeternabot_sameState_KL_Theo_A_28] | 595
28 | GUCCACACUGCAGGAUAUGGAGGUAUAGCGAGGGAGUUUGGAAGCACACCUCUGGCAGUGAUGUUGCCAGAAGGGCGGUGCGGCG [Rauserin] | 89.5
29 | UGUAUGUGAUGUGAUACCAGUGAAGAGCCAGUGAUGUUGGUAGAACUGGUAUAUAAAUAACACCCUUGGCAGCACAGUCACGUAC [whbob_Ex_Theo_B_sa100] | 241
30 | AAUAAUGGAGUGAUGUUCCAGUAAUGGGAUACCAGACAUGAAAAUGUCCCUUGGCAGCUCAAAGGUCUAGUGAUGUUAGAAAGAA [KL-SSTheo-A5 #Double Kiss] | 300
31 | AGGAUGUAGUGAUGUUAUAUAAGAAGUAGACGAGGACCGGUACGGCCGCCACUCGAAACGGCUACUAGCGCGUUGCGAGGUGUGC [ExTryptoA.Cg] | 435
32 | AGGUCACGAGGAAGGAGCGCCCUGACAGGUUGCUGCCGUGGGCAGUGAUGUUGCUCAGUCCGGCAGGUAGGUCGCCUCGUGACCU | 174
33 | AGAGUUUUAUGAGGAUAUGAGAUAGUUAAUGAGUGAGUUAUAGUGUAGUUUGGUUAGUGAUGUUAUUUAGAAGGCGUGAGUGAUG [zzfzmullin] | 92.9

same assay, conditions: Eterna round: R107; input ligand: none

Row | Sequence | apparent KD of K4 kissing-loop reporter [nM]
34 | GCGCGUCAUGGCGGCGGUGACUACGCCGAUACCAGCCGGGAAACCGGCCCUUGGCAGCGGCGCGCCGGAGUGAUGUUCCGACAGA [#2 Exclusion - Theophylline A Attempt #4 (HarryS)] | 275
35 | GGUAGCAUGGCGGCCGCCACUAGAUCAGUGAUGUUGAUCCCGCCGUCUUACGGCGAGUCAGAGGCUAGGACCGGGCCAUGCUACC | 490
36 | CAUACGCAUGGAGGAUAUGAGAUUUCUCAUAUUAUUUAAUAUUCUCAGUGAUGUUGAGAAUUUAACUCAGAAGGCCAUGUGUAUG [Ex FMN B 5] | 156
37 | UGAUGUUUAGGUCACCCAGUGAUGUUGGAAGGAGCGUGCGAAAGCACAGGUAGGUCGCCAAUCUCCUUGUGACCUGAGCAUCUAA [#SwitchBubble 14 #K4Early] | 1050
38 | UUAUUAAUAACAGAUACCAGUCCAGAAUGAAUACUAUAGUGAUGUUAUAAUAAAGGGAAGGACCCUUGGCAGCUGUAAUAUAUUU [AstrosSSTheB#1] | 501
39 | AAGUCUCGUUAAUUCGUGGUUUCGAUCGAUACCAGUAGCGAGAGUUACCCUUGGCAGCGAAAUGAGUGAUGUUCAUGAAAGAAGA [KL-XTheoA10] | 64.6
40 | CAUACGCAUGGAGGAUAUGAGAUUUUUCAUAUUACUUUUUAUUCUCAGUGAUGUUGGGAUUUGUAAUCAGAAGGCCAUGUGUAUG [#10 K4 FMN B Exclusion] | 99.8
41 | GGAAGGAAGGGAAGGAGCGCGCAGGCAGUGAUGUUGCCAAACAAAACAAACAAAACAAAAGCGCAGGUAGGUCGCCCGAAGGACG | 89.7
42 | GACUACCGGGCGGCCGCCACUGGGCUCCGAGUGAUGUUCGGAAAGACUCAUACACUGCUGUCAGACAGGACCGGGCCAAGGCGCA [theeternabot_sameState_KL_Trp_B_5] | 172
43 | GCGUUCAUGGCAGGAUAUAGGUAAAGGAGUGAUGUUCCUUAUGUUGCAUUUACUUAAUCCAACUCCCUAGAAGGGCCAUGAACGC | 151
44 | CGCAGUGAUGUUGCGAGUAGCUACAGGGAAGGAGCGCGCUAGUGCGCAGGUAGGUCGCCCACGCAGUGAUGUUGCGUCAUAGGGU [Exclusion Arg A GF8] | 114
45 | UCCUUAUCGCGGUCAUAAAGCCUAUAAAACAAGGAUAUCUCAUCAGAGAGAAGGUGUGAGUGAUGUUCAAAGGCCACCACGGGUU [theeternabot_sameState_KL_FMN_A_47] | 840
46 | GGGCAUGUUAAAGGAUAUAGCAGGUGAUACAAGAAAGUGAGUGAUGUUUAUGUAGAUGAUGAUAUGUUAGAAGGUUAACAAAACC [abcdefghijklm] | 620
47 | UGUCAUUGGUCGGCCGCCACUUCAUGUAGAGUGAUGUUCUGUAAGACGGAUCGAAAGAUCUGUCGAAGGACCGGGACCGAUGACU [FiskerMod 13 - Jieux - Same State - Tryptophan B] | 855
48 | AUUUAAUGUAUAGAUUAUAUACAUAAUUCAGAGGAUAUGCAUAGAAGCAGAAGGCUGGUUGCAGUGAUGUUGCUUUUUUAAUUUA [JR_SSFMNA_Sub008] | 76.7
49 | AAAAUAAUCCAGUGAUGUUGGUAUCCAGAUACCAGCCAGGAAACUGGCCCUUGGCAGCUGUGGACGUACAAAAUAAGUACGUCCU [#OpenEnded 10 #StaticStem #K4Early] | 464
50 | UGUAAUGAGUGAUGUUCAUGUAGUAAGGAUACCAGUAAUUCAAAAUGCCCUUGGCAGCUUAGUUCUAUCUAUAGUUGGGUAGUGG [Theophilline A V4 (+5U)] | 205
51 | AAGGGCGAGGUAACGUGGAUAUCUCGUCGCAAGGAUAUCUGGAAACAGAGAAGGUGCUACAUUACCGGCAGUGAUGUUGCUGACC | 573
52 | AAUGGAGGCUGAAGGAGCGCCGCCAGUGAUGUUGGGAGUUAGAUACCAGUGAUGUUGGGCCGGCAGGUAGGUCGCGGUUUUUAUU [Exclusion Arginine B Gf 16] | 136
53 | GCAGUCAAUCGACCACGAAAGUGGAUGGAUACCAGCCCGAAACCGGGCCCUUGGCAGCCAGUGAUGUUGGAAGACUGCUUUAAAA [#SwitchBubble 14 #K4Late] | 548
54 | UGACAUUGCUCAGAUACCAGACUUGAGGAACACCCAAGUGCCAAAUACGUACAAAUAAAAGUCCCUUGGCAGCUGAGCAAUGUCU [TheoBX 12] | 48.5
